Assay results as given in US12428627B2, “Mutant p-hydroxyphenylpyruvate dioxygenase, and coding nucleic acid and use thereof” (Qingdao Kingagroot Chemical Compound Co., Ltd., priority 2018, dated 2025).

Legend:
[1] = test system: transgenic rice (Zhonghua 11); test: Herbicide resistance of transgenic rice seedlings (T0) on medium containing tembotrione; assay type: in vivo; settings: T0 transgenic seedlings overexpressing the mutant, differentiation medium
Excerpt: (§1) • 1. Construction of overexpression vector • 1) Primers: primers were designed according to the selected restriction sites and the nucleotide sequence of the gene itself to amplify the three-site mutant HPPD (H141R/G342D/D370N) (OsHPPD3M). The designed primers were synthesized by Beijing Qingke Biotechnology Co., Ltd.: HPPD-F, […] ATGCCTCCCACT CCCACCC, HPPD-R, […] GGC. • 2) PCR amplification: the gene of interest was amplified by using the synthesized primer and Q5 DNA polymerase (NEB, New England Biolabs, Boston, USA). The amplified product was assayed by agarose gel electrophoresis, and the product was recovered according to operational instructions of the TIANquick Midi Purification kit. After the completion of the recovery, the concentration of extracted DNA was determined by Nanodrop. • 3) Construction of a rice overexpression vector: the rice overexpression vector pCAMBIA1301-OsHPPD3M was constructed with the recovered HPPD fragments and plasmid pCAMBIA1301 digested by KpnI and HindIII by using the HB-in Fusions™ seamless cloning kit of HanBio Biotechnology Co., Ltd., (Shanghai), and then transformed into the competent E. coli DH5α to obtain a positive clone; the positive clone was transformed into Agrobacterium after sequencing and restriction endonuclease digestion. • 2. […]

[2] = test system: transgenic rice; test: Herbicide resistance of transgenic rice (T0, T1 generation) sprayed with shuangzuocaotong; assay type: in vivo
Excerpt: as §1

B1: H141R/G342D/D370N: three-site mutant rice HPPD (OsHPPD3M) (protein, listed as Oryza sativa)
chain: MPPTPTPTATTGAVSAAAAAGENAGFRLVGHRRFVRANPRSDRFQALAFHHVELWCADAASAAGRFAFALGAPLAARSDLSTGNSAHASLLLRSASVAFLFTAPYGGDHGVGADAATTASIPSFSPGAARRFAADHGLAVRAVALRVADAADAFRASVAAGARPAFQPADLGGGFGLAEVELYGDVVLRFVSHPDGADAPFLPGFEGVSNPGAVDYGLRRFDHVVGNVPELAPVAAYISGFTGFHEFAEFTAEDVGTAESGLNSVVLANNAETVLLPLNEPVHGTKRRSQIQTYLDHHGGPGVQHIALASDDVLGTLREMRARSAMGGFEFLAPPPPNYYDDVRRRAGDVLSEEQINECQELGVLVDRDNQGVLLQIFTKPVGDRPTFFLEMIQRIGCMEKDESGQEYQKGGCGGFGKGNFSELFKSIEEYEKSLEAKQAPTVQGS
modifications: The amino acid sequence of Wild-Type rice HPPD protein (OsHPPD _WT)
tembotrione concentration in culture medium tolerated (remains green) [1]: 3 µM | shuangzuocaotong rate tolerated, T0 generation plants ([2]; T0 plants expressing the mutant, spraying): 8-16 grams active ingredient per mu | shuangzuocaotong rate tolerated, T1 generation plants ([2]; T1 plants expressing the mutant, spraying): 32-64 grams active ingredient per mu | resistance multiple of transgenic rice to HPPD-inhibiting herbicide ([2]; overexpression, field rate of shuangzuocaotong 4 g a.i./mu): at least 4
